Results taken from patent publication US20090286243A1 (CEDARS SINAI MEDICAL CENTER, published 2009).

T1: wild type human Kv3.3 (KCNC3) voltage-gated potassium channel subunit (human, UniProt Q14003 1-757)
T1 sequence: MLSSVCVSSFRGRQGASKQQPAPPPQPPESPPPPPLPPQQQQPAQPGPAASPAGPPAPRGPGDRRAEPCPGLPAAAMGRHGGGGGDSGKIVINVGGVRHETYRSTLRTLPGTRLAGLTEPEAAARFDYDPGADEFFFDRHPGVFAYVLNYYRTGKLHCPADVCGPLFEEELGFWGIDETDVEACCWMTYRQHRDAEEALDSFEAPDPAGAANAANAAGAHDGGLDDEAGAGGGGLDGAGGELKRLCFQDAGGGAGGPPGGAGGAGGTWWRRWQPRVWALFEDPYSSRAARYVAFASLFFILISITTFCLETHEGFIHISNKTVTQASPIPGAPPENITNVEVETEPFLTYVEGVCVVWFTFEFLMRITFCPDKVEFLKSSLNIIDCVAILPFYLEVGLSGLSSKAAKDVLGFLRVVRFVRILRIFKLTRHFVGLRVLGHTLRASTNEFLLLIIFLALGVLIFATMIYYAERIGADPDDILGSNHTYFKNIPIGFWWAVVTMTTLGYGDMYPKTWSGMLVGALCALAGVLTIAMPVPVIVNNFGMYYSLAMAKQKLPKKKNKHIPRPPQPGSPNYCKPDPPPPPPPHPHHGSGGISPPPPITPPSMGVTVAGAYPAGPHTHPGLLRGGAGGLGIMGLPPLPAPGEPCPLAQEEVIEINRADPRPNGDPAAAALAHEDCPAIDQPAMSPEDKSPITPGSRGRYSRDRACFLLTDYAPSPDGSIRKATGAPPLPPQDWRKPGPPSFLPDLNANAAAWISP


Target: T1, wild type human Kv3.3 (KCNC3) …
Test: cell-based or functional assay

current amplitudes measured at +60 mV, 1:1 expression ratio of wild type and R423H, Xenopus oocytes | current amplitudes, 1:1 expression ratio of wild type and R366H, Xenopus oocytes | Binder
~20 % of wild type expressed alone | – | Kv3.3 R423H mutant subunit (other) MLSSVCVSSFRGRQGASKQQPAPPPQPPESPPPPPLPPQQQQPAQPGPAASPAGPPAPRGPGDRRAEPCPGLPAAAMGRHGGGGGDSGKIVINVGGVRHETYRSTLRTLPGTRLAGLTEPEAAARFDYDPGADEFFFDRHPGVFAYVLNYYRTGKLHCPADVCGPLFEEELGFWGIDETDVEACCWMTYRQHRDAEEALDSFEAPDPAGAANAANAAGAHDGGLDDEAGAGGGGLDGAGGELKRLCFQDAGGGAGGPPGGAGGAGGTWWRRWQPRVWALFEDPYSSRAARYVAFASLFFILISITTFCLETHEGFIHISNKTVTQASPIPGAPPENITNVEVETEPFLTYVEGVCVVWFTFEFLMRITFCPDKVEFLKSSLNIIDCVAILPFYLEVGLSGLSSKAAKDVLGFLRVVRFVRILHIFKLTRHFVGLRVLGHTLRASTNEFLLLIIFLALGVLIFATMIYYAERIGADPDDILGSNHTYFKNIPIGFWWAVVTMTTLGYGDMYPKTWSGMLVGALCALAGVLTIAMPVPVIVNNFGMYYSLAMAKQKLPKKKNKHIPRPPQPGSPNYCKPDPPPPPPPHPHHGSGGISPPPPITPPSMGVTVAGAYPAGPHTHPGLLRGGAGGLGIMGLPPLPAPGEPCPLAQEEVIEINRADPRPNGDPAAAALAHEDCPAIDQPAMSPEDKSPITPGSRGRYSRDRACFLLTDYAPSPDGSIRKATGAPPLPPQDWRKPGPPSFLPDLNANAAAWISP
– | ~50 % of wild type expressed alone | Kv3.3 R366H mutant subunit (other) MLSSVCVSSFRGRQGASKQQPAPPPQPPESPPPPPLPPQQQQPAQPGPAASPAGPPAPRGPGDRRAEPCPGLPAAAMGRHGGGGGDSGKIVINVGGVRHETYRSTLRTLPGTRLAGLTEPEAAARFDYDPGADEFFFDRHPGVFAYVLNYYRTGKLHCPADVCGPLFEEELGFWGIDETDVEACCWMTYRQHRDAEEALDSFEAPDPAGAANAANAAGAHDGGLDDEAGAGGGGLDGAGGELKRLCFQDAGGGAGGPPGGAGGAGGTWWRRWQPRVWALFEDPYSSRAARYVAFASLFFILISITTFCLETHEGFIHISNKTVTQASPIPGAPPENITNVEVETEPFLTYVEGVCVVWFTFEFLMHITFCPDKVEFLKSSLNIIDCVAILPFYLEVGLSGLSSKAAKDVLGFLRVVRFVRILRIFKLTRHFVGLRVLGHTLRASTNEFLLLIIFLALGVLIFATMIYYAERIGADPDDILGSNHTYFKNIPIGFWWAVVTMTTLGYGDMYPKTWSGMLVGALCALAGVLTIAMPVPVIVNNFGMYYSLAMAKQKLPKKKNKHIPRPPQPGSPNYCKPDPPPPPPPHPHHGSGGISPPPPITPPSMGVTVAGAYPAGPHTHPGLLRGGAGGLGIMGLPPLPAPGEPCPLAQEEVIEINRADPRPNGDPAAAALAHEDCPAIDQPAMSPEDKSPITPGSRGRYSRDRACFLLTDYAPSPDGSIRKATGAPPLPPQDWRKPGPPSFLPDLNANAAAWISP
